Laboratory results taken from doi:10.1101/2022.10.27.514150.

Target: Gluc1-ΔN(1–433)
Experiment: split reporter

Chain of Gluc2-E2F4 FL (Q16254 whole entry): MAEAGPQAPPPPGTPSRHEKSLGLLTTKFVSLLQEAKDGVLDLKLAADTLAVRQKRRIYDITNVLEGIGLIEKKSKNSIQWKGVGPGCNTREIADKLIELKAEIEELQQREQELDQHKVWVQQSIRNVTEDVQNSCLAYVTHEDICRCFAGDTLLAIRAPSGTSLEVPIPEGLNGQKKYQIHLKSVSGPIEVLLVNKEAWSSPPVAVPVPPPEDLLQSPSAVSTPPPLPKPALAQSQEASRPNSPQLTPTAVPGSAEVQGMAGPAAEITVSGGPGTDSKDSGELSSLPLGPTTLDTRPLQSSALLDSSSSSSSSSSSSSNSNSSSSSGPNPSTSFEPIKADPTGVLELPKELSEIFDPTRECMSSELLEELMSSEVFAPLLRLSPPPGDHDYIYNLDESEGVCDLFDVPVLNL

normalized luminescence ratio (NLR): > 20
Substance: Gluc2-E2F4 FL (from UniProt Q16254 1-413) (natural protein)
